The data set is described as follows: protein stability index of a GFP-peptide fusion (GPS, HEK-293T) (PSI 1-6); higher = more stable. To be noted: c terminus: native.
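Note: lentivirally expressed fusion library, cells FACS-sorted into six equal-sized GFP/DsRed ratio bins, PSI computed from sequencing read fractions per bin weighted by bin number.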

B1: TRPA1 addC (peptide)
chain: EQRNSRWNTVLRAVKAKTHHLEPC
Take B1: the protein stability index (parent: NP_015628.1) amounted to 4.32.

B2: PSMB5 addC (peptide)
chain: DGWIRVSSDNVADLHEKYSGSTPC
Regarding B2, the protein stability index (parent: NP_002788.1) is 2.89.

B3: POLD2 addC (peptide)
chain: CQPISFSGFGAEDDDLGGLGLGPC
For B3, the protein stability index (parent: NP_006221.1) was determined as 2.27.

B4: BEX2 addC (peptide)
chain: HSLRAVSTDPPHHDHHDEFCLMPC
B4: the protein stability index (parent: NP_116010.1) is 3.48.

B5: SNF8 addC (peptide)
chain: LPALFTDLYSQEITAEEAREALPC
Consider B5, for which the protein stability index (parent: NP_009172.2) amounted to 3.81.
